This is an account of results in patent US20190270811A1 (UCB, published 2019).

The target in assay [1] is T1, Human FcRn expressed on MDCK II clone 15 cells (human FcRn and human B2M) (human, UniProt P55899 24-365). Description: cell-based or functional assay.
The target in assay [2] is T1, Human FcRn expressed on MDCK II clone …. Description: quantitative flow cytometry, AlexaFluor 488-labelled antibody on MDCK II clone 15 cells, pH 6.0, mean of n=3.
Description: (§1) Specific binding of antibody to FcRn across a range of antibody concentrations was used to determine KD.
(§2) The final antibody concentrations ranged from 400 nM to 0.003 nM. The cells were washed in ice cold Facs buffer then analysed by flow cytometry using a Guava flow cytometer (Millipore, UK). Titration data sets were also produced for isotype control antibodies for each antibody format to determine non-specific binding. The number of moles of bound antibody was calculated using interpolated values from a standard curve generated from beads comprised of differing amounts of fluorescent dye. Geometric mean fluorescence values were determined in the flow cytometric analyses of cells and beads. Non-specific binding was subtracted from the anti-FcRn antibody values and the specific binding curve generated was analysed by non-linear regression using a one-site binding equation (Graphpad Prism®) to determine the KD. Data is representative of 3 experiments.
Assay [3] has as its target T2, Human FcRn extracellular domain (non-covalent complex of human FcRn alpha chain extracellular domain and … (human, UniProt P55899 24-297; P61769 21-119).
T2 construct: also called hFcRn; hFcRn alpha chain ECD region with human beta 2 microglobulin
The assay is described as follows: SPR Biacore T200, IgG4P captured by anti-human Fc, hFcRn ECD/b2M as analyte, pH 7.4, run 2.
Description: (§3) Biomolecular interaction analysis using surface plasmon resonance technology (SPR) was performed on a Biacore T200 system (GE Healthcare) and binding to human FcRn extracellular domain determined.
(§4) The surface was regenerated by 2×60 s 50 mM HCl at 10 μl/min for the running buffer at pH6 or by 60 s 40 mM HCl and 30 s 10 mM NaOH for the running buffer at pH7.4. The data was analysed using T200 evaluation software (version 1.0) using the 1:1 binding model with local Rmax.

In assay [4] the target is T2, Human FcRn extracellular domain …. The assay is described as follows: SPR Biacore T200, IgG4P captured by anti-human Fc, hFcRn ECD/b2M as analyte, pH 7.4, run 1.
Description: as §3, §4
For assay [5] the target is unchanged. The assay is described as follows: SPR Biacore T200, IgG4P captured by anti-human Fc, hFcRn ECD/b2M as analyte, pH 7.4, mean of 3.
Description: as §3, §4
Assay [6] has as its target T3, Cynomolgus macaque FcRn expressed on MDCK II clone 40 cells (cynomolgus macaque FcRn and B2M) (cynomolgus macaque, UniProt Q8SPV9 24-365; Q8SPW0 21-119).
T3 construct: whole, on cells; also called Cyno FcRn
Description: quantitative flow cytometry on MDCK II clone 40 cells, pH 7.4, mean of n=3.

Assay [7] addresses T3, Cynomolgus macaque FcRn expressed on …. Description: quantitative flow cytometry on MDCK II clone 40 cells, pH 6.0, mean of n=3.
Description: as §1
Assay [8] concerns the target T2, Human FcRn extracellular domain …. Description: SPR Biacore T200, IgG4P captured by anti-human Fc, hFcRn ECD/b2M as analyte, pH 6.0, mean of 3.
Description: as §3, §4
The target is the same in assay [9]. The assay is described as follows: SPR Biacore T200, IgG4P captured by anti-human Fc, hFcRn ECD/b2M as analyte, pH 7.4, run 3.
Description: as §3, §4
Assay [10] shares this target. Description: SPR Biacore T200, IgG4P captured by anti-human Fc, hFcRn ECD/b2M as analyte, pH 6.0, run 2.
Description: as §3, §4
For assay [11] the target is unchanged. The assay is described as follows: SPR Biacore T200, IgG4P captured by anti-human Fc, hFcRn ECD/b2M as analyte, pH 6.0, run 1.
Description: as §3, §4
The target is the same in assay [12]. Description: SPR Biacore T200, IgG4P captured by anti-human Fc, hFcRn ECD/b2M as analyte, pH 6.0, run 3.
Description: as §3, §4
Assay [13] addresses T1, Human FcRn expressed on MDCK II clone …. The assay is described as follows: quantitative flow cytometry, AlexaFluor 488-labelled antibody on MDCK II clone 15 cells, pH 7.4, mean of n=3.
Description: as §1, §2

T3 sequence (Q8SPV9 24-365, chain 1 of 2): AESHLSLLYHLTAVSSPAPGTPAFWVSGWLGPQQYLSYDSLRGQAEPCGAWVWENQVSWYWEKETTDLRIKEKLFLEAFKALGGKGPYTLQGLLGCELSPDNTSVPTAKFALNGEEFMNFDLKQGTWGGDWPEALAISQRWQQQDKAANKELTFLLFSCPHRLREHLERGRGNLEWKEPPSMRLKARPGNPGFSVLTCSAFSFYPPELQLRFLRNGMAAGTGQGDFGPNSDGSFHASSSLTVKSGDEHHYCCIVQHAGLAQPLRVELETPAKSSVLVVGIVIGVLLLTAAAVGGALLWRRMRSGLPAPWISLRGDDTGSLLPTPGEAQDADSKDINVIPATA
T3 sequence (Q8SPW0 21-119, chain 2 of 2): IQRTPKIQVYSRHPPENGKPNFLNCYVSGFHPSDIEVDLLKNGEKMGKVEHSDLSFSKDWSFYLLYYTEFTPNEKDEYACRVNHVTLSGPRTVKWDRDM

B1: CA170_1638.g49 FabFv (bispecific antibody)
heavy: EVQLVESGGGLVQPGGSLRLSCAASGFSLSTYGVGVGWVRQAPGKGLEWLANIWWDDDKRYNPSLENRFTISRDNAKNSAYLQMNSLRAEDTAVYYCARTPAYYGSHPPFDYWGQGTMVTVSSASTKGPSVFPLAPSSKSTSGGTAALGCLVKDYFPEPVTVSWNSGALTSGVHTFPAVLQSSGLYSLSSVVTVPSSSLGTQTYICNVNHKPSNTKVDKKVEPKSCSGGGGSGGGGTGGGGSEVQLLESGGGLVQPGGSLRLSCAVSGIDLSNYAINWVRQAPGKCLEWIGIIWASGTTFYATWAKGRFTISRDNSKNTVYLQMNSLRAEDTAVYYCARTVPGYSTAPYFDLWGQGTLVTVSS
light: DIQMTQSPSSLSASVGDRVTITCRTSEDIYTNLAWYQQKPGKVPKLLIYVAKTLQEGVPSRFSGSGSGTHYTLTISSLQPEDVATYYCLQGFKFPWTFGGGTKVEIKRTVAAPSVFIFPPSDEQLKSGTASVVCLLNNFYPREAKVQWKVDNALQSGNSQESVTEQDSKDSTYSLSSTLTLSKADYEKHKVYACEVTHQGLSSPVTKSFNRGECGGGGSGGGGSGGGGSDIQMTQSPSSVSASVGDRVTITCQSSPSVWSNFLSWYQQKPGKAPKLLIYEASKLTSGVPSRFSGSGSGTDFTLTISSLQPEDFATYYCGGGYSSISDTTFGCGTKVEIKRT
Take B1: the “apical to basolateral transcytosis of human IgG in MDCK II clone 15 cells, EC50” value in assay [1] came out at 0.42 nM.

B2: CA170_1638.g49 IgG4P (antibody)
heavy: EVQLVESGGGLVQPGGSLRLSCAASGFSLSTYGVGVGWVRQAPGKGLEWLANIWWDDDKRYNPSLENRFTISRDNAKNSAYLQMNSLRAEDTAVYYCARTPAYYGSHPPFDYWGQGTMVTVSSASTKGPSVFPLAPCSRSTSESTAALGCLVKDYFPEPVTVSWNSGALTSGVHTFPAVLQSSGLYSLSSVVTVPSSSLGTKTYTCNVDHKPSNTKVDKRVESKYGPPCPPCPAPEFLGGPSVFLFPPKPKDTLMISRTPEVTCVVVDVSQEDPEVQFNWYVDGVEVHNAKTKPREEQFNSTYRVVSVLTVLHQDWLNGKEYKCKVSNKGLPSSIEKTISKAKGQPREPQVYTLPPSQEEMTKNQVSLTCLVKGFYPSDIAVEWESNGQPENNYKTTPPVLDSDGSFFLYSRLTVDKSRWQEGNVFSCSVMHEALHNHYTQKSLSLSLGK
light: DIQMTQSPSSLSASVGDRVTITCRTSEDIYTNLAWYQQKPGKVPKLLIYVAKTLQEGVPSRFSGSGSGTHYTLTISSLQPEDVATYYCLQGFKFPWTFGGGTKVEIKRTVAAPSVFIFPPSDEQLKSGTASVVCLLNNFYPREAKVQWKVDNALQSGNSQESVTEQDSKDSTYSLSSTLTLSKADYEKHKVYACEVTHQGLSSPVTKSFNRGEC
notes: In the flow cytometry assays the antibody was labelled with AlexaFluor 488; also called 1638.49 g IgG4
Take B2: the Kd in assay [2] was found to be 0.22 nM; in assay [3], 0.0332 nM; in [4] it was 0.0257 nM; in [5], 0.0294 nM; in assay [6], 0.3 nM; in assay [7], 0.43 nM. Moreover, the Kd was 0.127 nM in [8]; 0.0293 nM in [9]; 0.126 nM in assay [10]; 0.129 nM in [11]; 0.127 nM in [12]; 0.2 nM in [13]. In addition, the koff came to 3.19e-05 s⁻¹ in assay [3]; 2.51e-05 s⁻¹ in [4]; 2.84e-05 s⁻¹ in assay [5]; 0.000141 s⁻¹ in assay [8]; 2.82e-05 s⁻¹ in assay [9]; 0.000139 s⁻¹ in assay [10]. In addition, the koff in assay [11] was determined as 0.000143 s⁻¹; in [12], 0.00014 s⁻¹. In addition, the kon in [3] was 962000 M⁻¹ s⁻¹; in assay [4], 975000 M⁻¹ s⁻¹; in [5], 967000 M⁻¹ s⁻¹; in [8] it was 1.1e+06 M⁻¹ s⁻¹; in assay [9], 962000 M⁻¹ s⁻¹; in [10], 1.1e+06 M⁻¹ s⁻¹. Also, the figures for the kon in assay [11] and in [12] were 1.1e+06 M⁻¹ s⁻¹ and 1.11e+06 M⁻¹ s⁻¹, respectively. The “IgG recycling in MDCK II clone 15 cells, EC50” value in [1] stood at 0.31 nM. Also, the “apical to basolateral transcytosis of human IgG in MDCK II clone 15 cells, EC50” value in assay [1] came out at 2.4 nM.
